Experiment [1] deals with T1, FLAG-tagged IL-12p40 (human, UniProt P29460 23-328).
T1 sequence: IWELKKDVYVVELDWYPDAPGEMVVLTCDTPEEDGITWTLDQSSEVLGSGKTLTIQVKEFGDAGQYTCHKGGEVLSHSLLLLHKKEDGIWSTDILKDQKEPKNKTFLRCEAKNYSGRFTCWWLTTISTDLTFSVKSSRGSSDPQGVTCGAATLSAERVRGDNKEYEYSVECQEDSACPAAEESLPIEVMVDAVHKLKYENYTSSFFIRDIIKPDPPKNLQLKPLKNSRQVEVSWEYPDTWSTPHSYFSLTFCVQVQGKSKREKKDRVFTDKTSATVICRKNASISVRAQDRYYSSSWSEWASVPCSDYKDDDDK
The experiment is described as follows: ELISA, hybridoma supernatant on antigen captured by anti-FLAG M2. The protocol: (§1) Anti-FLAG M2 antibody (Sigma-Aldrich) was coated onto ELISA plates overnight. These plates were then used to capture individually: FLAG-tagged IL-23p19, FLAG-tagged IL-12p40 and FLAG-tagged IL-23. Hybridoma supernatant from the clones was added and hybridomas that were positive for binding to IL-23 but not IL-12p40 or IL-23p19 were expanded.

In experiment [2] the target is T2, FLAG-tagged IL-23p19 (human, UniProt Q9NPF7 20-189).
T2 sequence: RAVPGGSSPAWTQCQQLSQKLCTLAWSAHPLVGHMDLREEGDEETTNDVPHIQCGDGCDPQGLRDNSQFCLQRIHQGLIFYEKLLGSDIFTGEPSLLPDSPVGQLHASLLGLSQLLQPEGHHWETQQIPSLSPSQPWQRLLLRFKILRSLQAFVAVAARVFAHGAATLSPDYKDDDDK
The description is as above. The protocol: as §1

B1: E11E7 (antibody, V domains shown)
VH: QVQLKESGPGLVQPSQTLSLTCTVSGFSLISYNVHWVRQPRGKGLEWMGVIWTGGSTDYNSVLKSRLSISRDTSKSQVFLKMHSLQTEDIGTYYCARDKYGLFPGYFDYWGQGVMVTVSS
VL: DIVMTQSPFSLAVSEGEMVTINCKPSQSLLSSGNRKNYLAWYQQKPGQSPKLLIYYASTRQSGVPDRFIGSGSGTDFTLTISDVQAEDLADYYCLQHFNYPWTFGGGTKLELKR
notes: Rat monoclonal antibody from a hybridoma; also called rat antibody E11E7
With B1, the binding result in experiment [1] and in experiment [2] was “no binding” throughout.

The values above are taken from patent publication US20130115166A1 (CEPHALON AUSTRALIA, published 2013).
